Consider 6 molecules from article PMC2866327, “Designed Inhibitors of Insulin-Degrading Enzyme Regulate the Catabolism and Activity of Insulin” (PLoS ONE, 2010).

Where two headings read alike, the source gives them in different places. Square brackets hold non-standard residues; d marks the D form. Ends that are not written are not given here. 1Nal = N[C@@H](Cc1cccc2ccccc12)C(=O)O; diphenylalanine = not defined here

Common to all, as to conditions: modification not given
Assay [1] has as its target T1, insulin-degrading enzyme (recombinant human IDE) (human), P14735.
For assay [2], the target named is T1, insulin-degrading enzyme (recombinant …). This is another data set of the same source.
The target is the same in assay [3]. The source holds these as a separate data set.
Assay [4] shares this target. The source holds these as a separate data set.
For assay [5] the target is unchanged. This is another data set of the same source.
Assay [6] has the same target. The source holds these as a separate data set.

On to [diphenylalanine]-Arg-Tyr (reading uncertain) [diphenylalanine], for which the Ki in assay [1] was > 500 µM. In the case of FRY [4-fluorophenylalanine], in assay [2], the Ki turned out to be 7 µM.

As to FRY [4-(tert-butyl)-phenylalanine], the Ki in assay [3] stood at 16 µM. As to [2‑benzothiophenylalanine]-Arg-Tyr [2-benzothiophenylalanine], the Ki in assay [4] is 1.1 µM. On to FRY [3-fluorophenylalanine], for which the Ki in assay [5] is 7 µM.

On to [1Nal]-Arg-Tyr [1-naphthylalanine], for which, in assay [6], the Ki is 0.7 µM.
